For assay [1], the target named is SARS-CoV-2 spike ectodomain (SARS-CoV-2, Wuhan-Hu-1, UniProt P0DTC2). Nature of the assay: BLI. For orientation: Biolayer interferometry detects binding as a change in optical thickness at a sensor tip.
The target of assay [2] is HCoV-OC43 spike ectodomain (HCoV-OC43, strain Paris, UniProt Q696P8). As to the kind of experiment: BLI.
The target of the next assay is MHV spike S2 ectodomain (MHV, strain A59, UniProt P11224). As to the kind of experiment: ELISA.
The target of assay [3] is HCoV-HKU1 spike ectodomain (HCoV-HKU1, strain Caen1, UniProt E0YJ44, strain). As to the kind of experiment: ELISA. For orientation: ELISA stands for enzyme-linked immunosorbent assay.
Assay [4] addresses GFP-tagged membrane-anchored full-length MHV spike protein (MHV, strain A59 (assumed as for the …, UniProt P11224)). As to the kind of experiment: immunostaining of cells or tissue.

B1: human monoclonal antibody 28D9 (antibody, V domains shown)
VH: QVQLQQSGPGLVKPSQTLSLTCAISGDNVFSNSAAWNWIRQSPSRGLEWLGRTYYRSKWNNDYAVSVKGRITINPDTYKNQFSLQLNPVTPEDTAVYFCARVPMNRGGMDVWGQGTTVTVSS
VL: not shown
As for B1, the Kd in assay [1] is 5.96 nM; in assay [2], 7.45 nM. Further, the binding result is given as “binds” with MHV spike S2 ectodomain, “no binding (tested: 10 μg/ml)” in assay [3] and “binds” in assay [4].

B2: human monoclonal antibody 1.6C7 (antibody, V domains shown)
VH: QVQLQQSGPGLVKPSQTLSLTCAISGDSVSSDSAAWNWIRQSPSRGLEWLGRTYFRSKWNNHYAVSVKSRITINPDTSKNQFSLLLNPVTPEDTAVYYCARATLARGALDYWGQGTLVTVSS
VL: not shown
In turn, B2 registered a Kd in assay [2] of 5.28 nM. Further, the binding result with MHV spike S2 ectodomain is listed as “binds”; in assay [3] it was “no binding (tested: 10 μg/ml)”; in assay [4] it was “binds”.

The term Kd denotes the constant that tells how readily two partners part at equilibrium. A high value points to lower affinity.

For the origin of these results see publication doi:10.1101/2020.10.20.346916 (bioRxiv, 2020).
